Target: T1, OR7D4 (Homo sapiens, UniProt Q8NG98, D296E/E302K/G299D)
T1 construct: Improved functional expression of modified OR-genes containing the truncated, optimized C-terminus; expressed in transfected cells
T1 sequence (Q8NG98 with tags, fused parts or gaps D296E/G299D/E302K): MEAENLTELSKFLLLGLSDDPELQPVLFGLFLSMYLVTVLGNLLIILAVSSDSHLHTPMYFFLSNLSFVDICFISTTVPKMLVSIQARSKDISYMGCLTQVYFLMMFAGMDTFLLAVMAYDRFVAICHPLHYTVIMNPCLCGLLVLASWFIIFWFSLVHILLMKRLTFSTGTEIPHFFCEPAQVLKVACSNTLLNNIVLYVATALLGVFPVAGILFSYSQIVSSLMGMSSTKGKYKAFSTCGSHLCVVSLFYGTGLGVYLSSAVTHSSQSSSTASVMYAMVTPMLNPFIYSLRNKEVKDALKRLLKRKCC
Assay: CRE-luciferase assay, HEK cells expressing OR7D4 (wild-type / modified C-terminus)
Assay type: cell-based
Conditions: for EC2 (concentration for 2-fold luciferase induction) / EC2 Fold-improvement vs. wild-type / Fold induction luciferase: OR7D4 variant; for EC2 (concentration for 2-fold luciferase induction) / EC2 Fold-improvement vs. wild-type: Androstenone
Description: Random permutations of the general C-terminal sequence RN[KR][EDQ][VMIL][KR]KA[LIV][KRH][KR][LI][LIF][KRG][KR][KR]CC (SEQ ID NO: 822) linked to OR7D4 were generated based on degenerate oligonucleotides for the C-terminal domain. For this experiment, the MfeI/XhoI fragment from pcDNA3.1(+)-mmLucy-FLAG-rho-OR7D4 containing the CMV promoter and the OR coding sequence was used to replace the EcoRI/SalI fragment of pRDVCCB-CMV-dCas9-VPH-2A-Blast (Cellecta, Inc., Mountain View, USA). Complementary degenerate oligonucleotides were then used to replace the coding region of the C-terminal domain of […] (between Bsu36I and NotI). Random clones were selected, sequenced and tested for a correct open reading frame. A total of 55 clones were obtained with the correct open reading frame of […] and a permutation of the general sequence RN[KR][EDQ][VMIL][KR]KA[LIV][KRH][KR][LI][LIF][KRG][KR][KR]CC (SEQ ID NO: 822) as the C-terminal domain. All the different clones were compared to the wild-type sequence by the functional assay in HEK cells with the ligand Androstenone tested in a dose-response test.

Compound: C[C@]12CCC(=O)C[C@@H]1CC[C@@H]1[C@@H]2CC[C@]2(C)C=CC[C@@H]12 [Androstenone, reference compound]
- Comments on efficacy: 3-fold lower
- Fold-improvement potency (changed C-term. vs wild-type): 66
- Fold-improvement threshold (changed C-term. vs wild-type): 265

Compound: C[C@]12CC[C@@H](O)C[C@@H]1CC[C@@H]1[C@@H]2CC[C@]2(C)C=CC[C@@H]12 [androstenol, reference compound]
- activation of OR7D4 variants (wild-type vs SEQ ID NO: 86): can only activate the modified version of the receptor

Compound: SEQ ID NO: 254 (RNREMRKALHRLLGKKCC; source 1..18: note = C-terminal domain sequence)
- EC2 (concentration for 2-fold luciferase induction): 0.011 µM
- EC2 Fold-improvement vs. wild-type: 156.27

Compound: SEQ ID NO: 255 (RNREVKKAIHKLIGRKCC; source 1..18: note = C-terminal domain sequence)
- EC2 (concentration for 2-fold luciferase induction): 0.010 µM
- EC2 Fold-improvement vs. wild-type: 164.23

Compound: SEQ ID NO: 256 (RNREVRKAVHRLFKRKCC; source 1..18: note = C-terminal domain sequence)
- EC2 (concentration for 2-fold luciferase induction): 0.004 µM
- EC2 Fold-improvement vs. wild-type: 385.42

Compound: SEQ ID NO: 257 (RNKEMKKAIHKLFGKKCC; source 1..18: note = C-terminal domain sequence)
- EC2 (concentration for 2-fold luciferase induction): 0.010 µM
- EC2 Fold-improvement vs. wild-type: 172.96

Compound: SEQ ID NO: 258 (RNRDVKKAVHKLFRRKCC; source 1..18: note = C-terminal domain sequence)
- EC2 (concentration for 2-fold luciferase induction): 0.011 µM
- EC2 Fold-improvement vs. wild-type: 152.59

Compound: SEQ ID NO: 259 (RNRDMKKAVHKLFGKRCC; source 1..18: note = C-terminal domain sequence)
- EC2 (concentration for 2-fold luciferase induction): 0.020 µM
- EC2 Fold-improvement vs. wild-type: 84.30

Compound: SEQ ID NO: 260 (RNKELRKALHKLLGRKCC; source 1..18: note = C-terminal domain sequence)
- EC2 (concentration for 2-fold luciferase induction): 0.043 µM
- EC2 Fold-improvement vs. wild-type: 39.74

Compound: SEQ ID NO: 261 (RNRDVRKALRRILRRRCC; source 1..18: note = C-terminal domain sequence)
- EC2 (concentration for 2-fold luciferase induction): 0.004 µM
- EC2 Fold-improvement vs. wild-type: 427.69

Compound: SEQ ID NO: 262 (RNKDVRKAVRKLIRRRCC; source 1..18: note = C-terminal domain sequence)
- EC2 (concentration for 2-fold luciferase induction): 0.010 µM
- EC2 Fold-improvement vs. wild-type: 165.32

Compound: SEQ ID NO: 263 (RNRDVRKAVRRLFRKRCC; source 1..18: note = C-terminal domain sequence)
- EC2 (concentration for 2-fold luciferase induction): 0.006 µM
- EC2 Fold-improvement vs. wild-type: 304.87

Compound: SEQ ID NO: 264 (RNKDIKKAVKKLIKKKCC; source 1..18: note = C-terminal domain sequence)
- Fold induction luciferase (0.1 μM Androstenone): 3.79
- Fold induction luciferase (1 μM Androstenone): 23.26
- EC2 (concentration for 2-fold luciferase induction): 0.048 µM
- EC2 Fold-improvement vs. wild-type: 36.01

Compound: SEQ ID NO: 265 (RNRELRKAVRRLFKRRCC; source 1..18: note = C-terminal domain sequence)
- EC2 (concentration for 2-fold luciferase induction): 0.022 µM
- EC2 Fold-improvement vs. wild-type: 78.45

Compound: SEQ ID NO: 266 (RNKELRKAVRKIIKKKCC; source 1..18: note = C-terminal domain sequence)
- EC2 (concentration for 2-fold luciferase induction): 0.041 µM
- EC2 Fold-improvement vs. wild-type: 41.85

Compound: SEQ ID NO: 267 (RNRDVKKAVRRLFRRKCC; source 1..18: note = C-terminal domain sequence)
- EC2 (concentration for 2-fold luciferase induction): 0.006 µM
- EC2 Fold-improvement vs. wild-type: 266.97

Compound: SEQ ID NO: 268 (RNREVRKALRRIIRKRCC; source 1..18: note = C-terminal domain sequence)
- EC2 (concentration for 2-fold luciferase induction): 0.003 µM
- EC2 Fold-improvement vs. wild-type: 545.04

Compound: SEQ ID NO: 269 (RNKDIRKAVKKIFRRKCC; source 1..18: note = C-terminal domain sequence)
- EC2 (concentration for 2-fold luciferase induction): 0.026 µM
- EC2 Fold-improvement vs. wild-type: 65.26

Compound: SEQ ID NO: 270 (RNKDVRKAVRRLIKRKCC; source 1..18: note = C-terminal domain sequence)
- EC2 (concentration for 2-fold luciferase induction): 0.012 µM
- EC2 Fold-improvement vs. wild-type: 145.78

Compound: SEQ ID NO: 271 (RNRDLRKAVRKLFKKKCC; source 1..18: note = C-terminal domain sequence)
- EC2 (concentration for 2-fold luciferase induction): 0.030 µM
- EC2 Fold-improvement vs. wild-type: 56.86

Compound: SEQ ID NO: 272 (RNRDLRKALRRIFKRRCC; source 1..18: note = C-terminal domain sequence)
- EC2 (concentration for 2-fold luciferase induction): 0.013 µM
- EC2 Fold-improvement vs. wild-type: 136.52

Compound: SEQ ID NO: 273 (RNRDVRKAIKKLIRKRCC; source 1..18: note = C-terminal domain sequence)
- EC2 (concentration for 2-fold luciferase induction): 0.005 µM
- EC2 Fold-improvement vs. wild-type: 373.12

Compound: SEQ ID NO: 274 (RNKELKKAIKRILKKKCC; source 1..18: note = C-terminal domain sequence)
- EC2 (concentration for 2-fold luciferase induction): 0.095 µM
- EC2 Fold-improvement vs. wild-type: 18.20

Compound: SEQ ID NO: 275 (RNRDVRKAIRKLLKRKCC; source 1..18: note = C-terminal domain sequence)
- EC2 (concentration for 2-fold luciferase induction): 0.005 µM
- EC2 Fold-improvement vs. wild-type: 323.20

Compound: SEQ ID NO: 276 (RNRDLRKAVRRIFKKRCC; source 1..18: note = C-terminal domain sequence)
- EC2 (concentration for 2-fold luciferase induction): 0.034 µM
- EC2 Fold-improvement vs. wild-type: 50.55

Compound: SEQ ID NO: 277 (RNRDVRKAVRKLFKRRCC; source 1..18: note = C-terminal domain sequence)
- EC2 (concentration for 2-fold luciferase induction): 0.005 µM
- EC2 Fold-improvement vs. wild-type: 325.72

Compound: SEQ ID NO: 278 (RNRDVRKALRRLFKKRCC; source 1..18: note = C-terminal domain sequence)
- EC2 (concentration for 2-fold luciferase induction): 0.003 µM
- EC2 Fold-improvement vs. wild-type: 522.64

Compound: SEQ ID NO: 279 (RNKELKKALRKLIGKKCC; source 1..18: note = C-terminal domain sequence)
- EC2 (concentration for 2-fold luciferase induction): 0.098 µM
- EC2 Fold-improvement vs. wild-type: 17.53

Compound: SEQ ID NO: 280 (RNREMRKAIKKIIKKKCC; source 1..18: note = C-terminal domain sequence)
- EC2 (concentration for 2-fold luciferase induction): 0.009 µM
- EC2 Fold-improvement vs. wild-type: 187.06

Compound: SEQ ID NO: 281 (RNKEIKKAIKKIIKKRCC; source 1..18: note = C-terminal domain sequence)
- EC2 (concentration for 2-fold luciferase induction): 0.029 µM
- EC2 Fold-improvement vs. wild-type: 60.06

Compound: SEQ ID NO: 282 (RNRDVKKAIRRLFRRRCC; source 1..18: note = C-terminal domain sequence)
- EC2 (concentration for 2-fold luciferase induction): 0.007 µM
- EC2 Fold-improvement vs. wild-type: 250.61

Compound: SEQ ID NO: 283 (RNREVKKAVKKLIGKRCC; source 1..18: note = C-terminal domain sequence)
- EC2 (concentration for 2-fold luciferase induction): 0.013 µM
- EC2 Fold-improvement vs. wild-type: 128.83

Compound: SEQ ID NO: 284 (RNREMRKALRRLFRKRCC; source 1..18: note = C-terminal domain sequence)
- EC2 (concentration for 2-fold luciferase induction): 0.003 µM
- EC2 Fold-improvement vs. wild-type: 545.04

Compound: SEQ ID NO: 285 (RNKELKKALRRLIGRRCC; source 1..18: note = C-terminal domain sequence)
- Fold induction luciferase (0.1 μM Androstenone): 3.18
- Fold induction luciferase (1 μM Androstenone): 22.10
- EC2 (concentration for 2-fold luciferase induction): 0.042 µM
- EC2 Fold-improvement vs. wild-type: 41.00

Reference: patent publication US20260210939A1, “MODIFIED OLFACTORY RECEPTORS” (GIVAUDAN SA, priority 2022, published 2026)
